Values of other authors, collected in US20240139347A1, “COMPLEX, VASCULAR CONTRAST AGENT, X-RAY CONTRAST AGENT, METHOD FOR PRODUCING COMPLEX, AND IMAGING METHOD FOR CAPTURING STRUCTURAL CHANGE IN VESSEL” (TOHOKU UNIVERSITY, priority 2021, published 2024).

Conditions: Y. Nojima et al., Pharm. Res. 26 (2009)

B1: lactoferrin: lactoferrin (MW: 80 kDa), protein used in the complex of Example 1 (protein, UniProt P02788 20-710, looked up)
Lactotransferrin: GRRRSVQWCAVSQPEATKCFQWQRNMRKVRGPPVSCIKRDSPIQCIQAIAENRADAVTLDGGFIYEAGLAPYKLRPVAAEVYGTERQPRTHYYAVAVVKKGGSFQLNELQGLKSCHTGLRRTAGWNVPIGTLRPFLNWTGPPEPIEAAVARFFSASCVPGADKGQFPNLCRLCAGTGENKCAFSSQEPYFSYSGAFKCLRDGAGDVAFIRESTVFEDLSDEAERDEYELLCPDNTRKPVDKFKDCHLARVPSHAVVARSVNGKEDAIWNLLRQAQEKFGKDKSPKFQLFGSPSGQKDLLFKDSAIGFSRVPPRIDSGLYLGSGYFTAIQNLRKSEEEVAARRARVVWCAVGEQELRKCNQWSGLSEGSVTCSSASTTEDCIALVLKGEADAMSLDGGYVYTAGKCGLVPVLAENYKSQQSSDPDPNCVDRPVEGYLAVAVVRRSDTSLTWNSVKGKKSCHTAVDRTAGWNIPMGLLFNQTGSCKFDEYFSQSCAPGSDPRSNLCALCIGDEQGENKCVPNSNERYYGYTGAFRCLAENAGDVAFVKDVTVLQNTDGNNNEAWAKDLKLADFALLCLDGKRKPVTEARSCHLAMAPNHAVVSRMDKVERLKQVLLHQQAKFGRNGSDCPDKFCLFQSETKNLLFNDNTECLARLHGKTTYEKYLGPQYVAGITNLKKCSTSPLLEACEFLRK
Q: For B1, which “half-life in blood of lactoferrin alone” value is on record?
A: about 7.8 min
